The values below come from PMC5325477, “The single nucleotide variant rs12722489 determines differential estrogen receptor binding and enhancer properties of an IL2RA intronic region”.

For data set [1], the system named is ERα (endogenous, MT-2 nuclear extract) (human (MT-2 cells)). The data set can be described thus: pull-down (anti-ERα, qPCR). Particulars: normalized to 176 bp internal control DNA; EMSA: 10% glycerol, 80 mM KCl, 25 mM NaCl, 15 mM Tris pH 8.0, 0.18 mM EDTA, 1 mM MgCl2, 1.1 mM DTT, 50 uM Na3VO4, 33.3 ug/ml BSA, 150 ug/ml poly-dIdC, 20 min ….
For data set [2], the target named is ERα (purified recombinant) (human, UniProt P03372 1-595). Kind of data set: EMSA; below detection limit; EMSA: 10% glycerol, 80 mM KCl, 25 mM NaCl, 15 mM Tris pH 8.0, 0.18 mM EDTA, 1 mM MgCl2, 1.1 mM DTT, 50 uM Na3VO4, 33.3 ug/ml BSA, 150 ug/ml poly-dIdC, 20 min room temperature, gel at 4 C; pull-down: 60 mM KCl, 12 mM HEPES pH 8.0, 4 mM Tris pH 8.0, 0.5 mM EDTA, 5% glycerol, 1 mM DTT, salmon sperm DNA, on ice, then RIPA buffer, 4 C overnight. Particulars: protein: recombinant; chain copies: 2; label: 32P (dATP, Klenow fill-in); blunt after Klenow fill-in (annealed oligos of 26 and 24 nt). On the technique in general: A gel shift assay detects complexes by their altered migration in electrophoresis.
ERα (purified recombinant), sequence (P03372 whole entry): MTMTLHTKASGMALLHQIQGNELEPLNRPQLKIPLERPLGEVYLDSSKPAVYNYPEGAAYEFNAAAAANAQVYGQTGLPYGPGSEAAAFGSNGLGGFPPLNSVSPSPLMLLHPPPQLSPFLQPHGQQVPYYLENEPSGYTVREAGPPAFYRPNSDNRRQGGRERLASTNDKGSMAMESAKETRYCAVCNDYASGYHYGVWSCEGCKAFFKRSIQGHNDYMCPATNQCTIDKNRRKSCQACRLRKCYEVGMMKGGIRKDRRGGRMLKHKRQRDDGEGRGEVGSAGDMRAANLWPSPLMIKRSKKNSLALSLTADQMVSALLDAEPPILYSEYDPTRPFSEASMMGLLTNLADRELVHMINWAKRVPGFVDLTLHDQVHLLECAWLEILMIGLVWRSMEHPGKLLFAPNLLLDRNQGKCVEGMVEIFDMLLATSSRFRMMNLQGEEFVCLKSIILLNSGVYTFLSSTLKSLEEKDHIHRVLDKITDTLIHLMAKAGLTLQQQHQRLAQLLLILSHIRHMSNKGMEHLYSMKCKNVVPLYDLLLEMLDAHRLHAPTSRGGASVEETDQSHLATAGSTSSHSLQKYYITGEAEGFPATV

IL2RA rs12722489 G, 189 bp PCR displayed a binding signal (fold vs A variant) in data set [1] of 2.

B1: IL2RA rs12722489 A, 32 bp (dsDNA)
DNA 1: ACTTATCCAAGGATCTGAGTGGTCTTGGAGGG
DNA 2: CCCTCCAAGACCACTCAGATCCTTGGATAAGT
Consider B1, for which the binding result in data set [2] is “no binding”.
